Data from patent US8465735B2, “Variant form of urate oxidase and use thereof” (Savient Pharmaceuticals, Inc., priority 2005, dated 2013).

Tested on: O=c1[nH]c(=O)c2[nH]c(=O)[nH]c2[nH]1
Experiment: purified protein, by the assay type
Conditions: other: sodium borate buffer, pH 9.2, 25.0 °C
Procedure: Activity of uricase was measured by a UV method. […] Uricase potency is expressed in activity units per mg protein (U/mg).
The absorbance change with time (ΔA292 per minute) was derived from the linear portion of the curve.
The specific activity (potency) of uricase was calculated by dividing the activity in U/ml with protein concentration in mg/ml.

## A. flavus (Aspergillus flavus) uricase, native (Merck) (Aspergillus flavus)
  Km: 23.54 µM
  kcat: 11.2 s⁻¹
